The labels stand for the following.
T1: FcγRIIa H (human, UniProt P12318 34-217)
T1 construct: extracellular domain; Soluble His-tagged extracellular domain expressed in FreeStyle293 cells; also called FcγRIIa type H; FcgRIIa H; not shown: His tag attached to the C terminus
T1 sequence (looked up): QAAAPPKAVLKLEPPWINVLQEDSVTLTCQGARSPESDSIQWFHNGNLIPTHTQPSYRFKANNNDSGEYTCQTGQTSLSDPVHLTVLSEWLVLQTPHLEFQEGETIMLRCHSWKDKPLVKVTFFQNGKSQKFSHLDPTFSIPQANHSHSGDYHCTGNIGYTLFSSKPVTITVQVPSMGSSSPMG

T2: FcγRIIb (human, UniProt P31994 43-217)
T2 construct: extracellular domain; Soluble His-tagged extracellular domain expressed in FreeStyle293 cells; also called FcgRIIb; 2b; not shown: His tag attached to the C terminus
T2 sequence (looked up): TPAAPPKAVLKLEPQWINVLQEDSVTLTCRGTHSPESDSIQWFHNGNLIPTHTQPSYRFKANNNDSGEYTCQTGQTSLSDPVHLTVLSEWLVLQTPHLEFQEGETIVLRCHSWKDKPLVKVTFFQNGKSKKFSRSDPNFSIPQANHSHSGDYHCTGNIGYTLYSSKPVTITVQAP

B1: GpH7-A5/GpH7-B3 variant A327_03V/GpL16-k0 (antibody, human IgG1, kappa)
heavy 1: not shown
heavy 2: not shown
light: DIVMTQSPLSLPVTPGEPASISCQASESLVHSNRNTYLHWYLQKPGQSPQLLIYKVSNRFSGVPDRFSGSGSGTDFTLKISRVEAEDVGVYYCSQNTHVPPTFGQGTKVEIERTVAAPSVFIFPPSDEQLKSGTASVVCLLNNFYPREAKVQWKVDNALQSGNSQESVTEQDSKDSTYSLSSTLTLSKADYEKHKVYACEVTHQGLSSPVTKSFNRGEC
notes: Heterodimerized anti-glypican-3 IgG1; mutation in the GpH7-B3 H chain only; also called He Ab
B2: GpH7-A5/GpH7-B3 variant A330_05P/GpL16-k0 (antibody, human IgG1, kappa)
heavy 1: not shown
heavy 2: not shown
light: B1 light
notes: as for B1
B3: GpH7-A5/GpH7-B3 variant N325_13S/GpL16-k0 (antibody, human IgG1, kappa)
heavy 1: not shown
heavy 2: not shown
light: B1 light
notes: as for B1
B4: GpH7-A5/GpH7-B3 variant N325_14T/GpL16-k0 (antibody, human IgG1, kappa)
heavy 1: not shown
heavy 2: not shown
light: B1 light
notes: as for B1
B5: GpH7-A5/GpH7-B3 variant A327_18N/GpL16-k0 (antibody, human IgG1, kappa)
heavy 1: not shown
heavy 2: not shown
light: B1 light
notes: as for B1
B6: GpH7-A5/GpH7-B3 variant P331_03V/GpL16-k0 (antibody, human IgG1, kappa)
heavy 1: not shown
heavy 2: not shown
light: B1 light
notes: as for B1
B7: GpH7-A5/GpH7-B3 variant A327_08L/GpL16-k0 (antibody, human IgG1, kappa)
heavy 1: not shown
heavy 2: not shown
light: B1 light
notes: as for B1
B8: GpH7-A5/GpH7-B3 variant L328_09D/GpL16-k0 (antibody, human IgG1, kappa)
heavy 1: not shown
heavy 2: not shown
light: B1 light
notes: as for B1
B9: GpH7-A5/GpH7-B3 variant L328_03V/GpL16-k0 (antibody, human IgG1, kappa)
heavy 1: not shown
heavy 2: not shown
light: B1 light
notes: as for B1
B10: GpH7-A5/GpH7-B3 variant A327_07I/GpL16-k0 (antibody, human IgG1, kappa)
heavy 1: not shown
heavy 2: not shown
light: B1 light
notes: as for B1
B11: GpH7-A5/GpH7-B3 variant A327_09D/GpL16-k0 (antibody, human IgG1, kappa)
heavy 1: not shown
heavy 2: not shown
light: B1 light
notes: as for B1
B12: GpH7-A5/GpH7-B3 variant L328_20W/GpL16-k0 (antibody, human IgG1, kappa)
heavy 1: not shown
heavy 2: not shown
light: B1 light
notes: as for B1
B13: GpH7-A5/GpH7-B3 variant N325_20W/GpL16-k0 (antibody, human IgG1, kappa)
heavy 1: not shown
heavy 2: not shown
light: B1 light
notes: as for B1
B14: GpH7-A5/GpH7-B3 variant L328_04F/GpL16-k0 (antibody, human IgG1, kappa)
heavy 1: not shown
heavy 2: not shown
light: B1 light
notes: as for B1
B15: GpH7-A5/GpH7-B3 variant L328_10E/GpL16-k0 (antibody, human IgG1, kappa)
heavy 1: not shown
heavy 2: not shown
light: B1 light
notes: as for B1
B16: GpH7-A5/GpH7-B3 variant I332_10E/GpL16-k0 (antibody, human IgG1, kappa)
heavy 1: not shown
heavy 2: not shown
light: B1 light
notes: as for B1
B17: GpH7-A5/GpH7-B3 variant N325_15Y/GpL16-k0 (antibody, human IgG1, kappa)
heavy 1: not shown
heavy 2: not shown
light: B1 light
notes: as for B1
B18: GpH7-A5/GpH7-B3 variant P331_04F/GpL16-k0 (antibody, human IgG1, kappa)
heavy 1: not shown
heavy 2: not shown
light: B1 light
notes: as for B1
B19: GpH7-A5/GpH7-B3 variant A327_14T/GpL16-k0 (antibody, human IgG1, kappa)
heavy 1: not shown
heavy 2: not shown
light: B1 light
notes: as for B1
B20: GpH7-A5/GpH7-B3 variant L328_07I/GpL16-k0 (antibody, human IgG1, kappa)
heavy 1: not shown
heavy 2: not shown
light: B1 light
notes: as for B1
B21: GpH7-A5/GpH7-B3 variant P331_10E/GpL16-k0 (antibody, human IgG1, kappa)
heavy 1: not shown
heavy 2: not shown
light: B1 light
notes: as for B1
B22: GpH7-A5/GpH7-B3 variant P331_07I/GpL16-k0 (antibody, human IgG1, kappa)
heavy 1: not shown
heavy 2: not shown
light: B1 light
notes: as for B1
B23: GpH7-A5/GpH7-B3 variant L328_06M/GpL16-k0 (antibody, human IgG1, kappa)
heavy 1: not shown
heavy 2: not shown
light: B1 light
notes: as for B1
B24: GpH7-A5/GpH7-B3 variant A327_10E/GpL16-k0 (antibody, human IgG1, kappa)
heavy 1: not shown
heavy 2: not shown
light: B1 light
notes: as for B1
B25: GpH7-A5/GpH7-B3 variant N325_16H/GpL16-k0 (antibody, human IgG1, kappa)
heavy 1: not shown
heavy 2: not shown
light: B1 light
notes: as for B1
B26: GpH7-A5/GpH7-B3 variant L328_05P/GpL16-k0 (antibody, human IgG1, kappa)
heavy 1: not shown
heavy 2: not shown
light: B1 light
notes: as for B1
B27: GpH7-A5/GpH7-B3 variant L328_15Y/GpL16-k0 (antibody, human IgG1, kappa)
heavy 1: not shown
heavy 2: not shown
light: B1 light
notes: as for B1

Experimental findings from patent US20180155451A1 (published 2018) are described below.

One test deals with T1, FcγRIIa H. The test is described as follows: SPR (Biacore); He/Con_2aH divided by He/Con_2b (FcγRIIb) of the same antibody. The protocol: The heterodimerized antibodies He Abs in which one of the H chains was introduced with an alteration were assayed for their binding activities to each activating FcγR and inhibitory FcγR according to the method described in Example 4. […] The activating FcγRs in FIGS. 26, 27, 28, and 29 are FcγRIa, FcγRIIa (R), FcγRIIa (H), and FcγRIIIa, respectively.
(§1) Analysis of interaction between objective antibody and the FcγR was carried out using Biacore T100 (GE Healthcare). HBS-EP+ (GE Healthcare) was used as the running buffer, and the measurement temperature was set to 25° C. Chips produced by immobilizing the antigen peptide by the amine coupling method to a Series S Sencor Chip CM5 (GE Healthcare), or alternatively, chips produced by allowing preliminarily biotinylated antigen peptides to interact with and immobilize onto a Series S Sensor Chip SA (certified) (GE Healthcare) were used. Antibodies of interest were captured onto an antigen peptide-immobilized chip, and allowed to interact to each FcγR diluted with running buffer. To regenerate and repeatedly use the chip, the antibodies captured on the chip were washed off by reacting 10 mM glycine-HCl, pH 1.5.
B1: the He_2aH/2b turned out to be 0.54 ratio.
Same read-out and setting: in the case of B2 it was 0.63 ratio.
The same measure, in the same setting: next, B3: 0.45 ratio; B4: 0.68 ratio; B5: 0.59 ratio.
B6 registered a He_2aH/2b of 0.7 ratio.
Regarding B7, the He_2aH/2b was 0.74 ratio.
Molecule B8 gave a He_2aH/2b of 0.29 ratio.
B9 returned a He_2aH/2b of 0.78 ratio.
B10 yielded a He_2aH/2b of 0.46 ratio.
Still for that read-out and setting: next, B11: 0.61 ratio.
The same measure, in the same setting: in the case of B12 it was 0.48 ratio; in that of B13, 0.28 ratio; in that of B14, 0.33 ratio.
Still for that read-out and setting: in the case of B15 it was 0.32 ratio.
Consider B16, for which the He_2aH/2b was determined as 0.76 ratio.
Take B17: the He_2aH/2b stood at 0.41 ratio.
On the same count and under the same terms, in the case of B18 it was 0.77 ratio.
Take B19: the He_2aH/2b was determined as 0.51 ratio.
Molecule B20 displayed a He_2aH/2b of 0.59 ratio.
Molecule B21 registered a He_2aH/2b of 0.75 ratio.
The molecule B22 showed a He_2aH/2b of 0.68 ratio.
Still for that read-out and setting: next, B23: 0.73 ratio; B24: 0.65 ratio.
Same read-out and setting: in the case of B25 it was 0.68 ratio; in that of B26, 0.7 ratio.
As to B27, the He_2aH/2b came to 0.47 ratio.

Another test deals with T2, FcγRIIb. Put plainly: SPR (Biacore), captured antibody, FcγR analyte; relative to GpH7-A5/GpH7-B3/GpL16-k0 = 100. On the procedure: as §1
(§2) The FcγR-binding activity of each antibody was assessed primarily using as an indicator the FcγR-binding activity and dissociation constant for FcγR.
In general terms: In SPR one partner is held on a chip, and binding of the other changes the refractive index at the surface.
Turning to B1, the He/Con_2b was 94.7 relative (control = 100).
Same read-out and setting: in the case of B2 it was 137 relative (control = 100).
Regarding B3, the He/Con_2b is 177 relative (control = 100).
Consider B4, for which the He/Con_2b was 91.6 relative (control = 100).
Same read-out and setting: next, B5: 113 relative (control = 100).
Still for that read-out and setting: next, B6: 119 relative (control = 100).
The same measure, in the same setting: next, B7: 63.1 relative (control = 100).
Turning to B8, the He/Con_2b is 199 relative (control = 100).
For B9, the He/Con_2b is 126 relative (control = 100).
As for B10, the He/Con_2b is 127 relative (control = 100).
Regarding B11, the He/Con_2b was 172 relative (control = 100).
Still for that read-out and setting: next, B12: 235 relative (control = 100).
Still for that read-out and setting: next, B13: 169 relative (control = 100); B14: 219 relative (control = 100).
Same read-out and setting: next, B15: 172 relative (control = 100).
For the molecule B16, the He/Con_2b was 142 relative (control = 100).
Same read-out and setting: in the case of B17 it was 99.5 relative (control = 100); in that of B18, 110 relative (control = 100).
B19: the He/Con_2b was 89.4 relative (control = 100).
In the case of B20, the He/Con_2b is 160 relative (control = 100).
In the case of B21, the He/Con_2b is 116 relative (control = 100).
With B22, the He/Con_2b is 114 relative (control = 100).
Same read-out and setting: next, B23: 142 relative (control = 100).
Regarding B24, the He/Con_2b was 140 relative (control = 100).
Still for that read-out and setting: in the case of B25 it was 70.1 relative (control = 100); in that of B26, 65.1 relative (control = 100); in that of B27, 193 relative (control = 100).

For the next test, the target named is T1, FcγRIIa H. Described as above. The protocol: as §1, §2
Take B1: the He/Con_2aH is 51 relative (control = 100).
The same measure, in the same setting: next, B2: 85.7 relative (control = 100); B3: 79.7 relative (control = 100); B4: 62.7 relative (control = 100).
As for B5, the He/Con_2aH is 66.8 relative (control = 100).
For the molecule B6, the He/Con_2aH is 82.5 relative (control = 100).
Still for that read-out and setting: in the case of B7 it was 46.9 relative (control = 100); in that of B8, 58.5 relative (control = 100).
Take B9: the He/Con_2aH is 97.8 relative (control = 100).
Consider B10, for which the He/Con_2aH was 58.4 relative (control = 100).
With B11, the He/Con_2aH is 105 relative (control = 100).
As to B12, the He/Con_2aH is 113 relative (control = 100).
Regarding B13, the He/Con_2aH was 47.2 relative (control = 100).
With B14, the He/Con_2aH is 71.7 relative (control = 100).
The same measure, in the same setting: next, B15: 55.5 relative (control = 100); B16: 108 relative (control = 100).
For the molecule B17, the He/Con_2aH was 41.2 relative (control = 100).
On the same count and under the same terms, next, B18: 84.7 relative (control = 100); B19: 45.6 relative (control = 100).
For the molecule B20, the He/Con_2aH was 93.9 relative (control = 100).
Take B21: the He/Con_2aH was 87.1 relative (control = 100).
Regarding B22, the He/Con_2aH was 77.4 relative (control = 100).
With B23, the He/Con_2aH was 104 relative (control = 100).
The same measure, in the same setting: next, B24: 91.3 relative (control = 100); B25: 48 relative (control = 100).
On the same count and under the same terms, in the case of B26 it was 45.4 relative (control = 100); in that of B27, 90 relative (control = 100).
